The text below walks through data of patent publication US20180244777A1 (NUMAB THERAPEUTICS, published 2018).

Test [1] deals with human CD3ε expressed on the cell surface of T cells (Jurkat cells; human CD8+ T cells) (human) (UniProt P07766). Briefly: cell-based or functional assay.
Test [2] has as its target T1, cynomolgus monkey heterodimeric single-chain CD3εγ extracellular domain (cynomolgus monkey, UniProt Q95LI5 22-117; Q95LI7 23-113). Briefly: SPR, rabbit IgG captured, cyno single-chain CD3εγ ECD injected. (Surface plasmon resonance follows binding to a sensor surface in real time, without labels.)
Test [3] concerns the target T1, cynomolgus monkey heterodimeric …. Briefly: SPR; ratio of the KDs for cyno and human single-chain CD3εγ.
Test [4] deals with T2, human heterodimeric single-chain CD3εγ extracellular domain (human, UniProt P07766 23-126; P09693 23-116).
T2 construct: extracellular domain; Produced in-house; also called scCD3γε; human CD3ge
Briefly: SPR, rabbit IgG captured, human single-chain CD3εγ ECD injected. The protocol: Binding affinities of monoclonal rabbit anti-CD3 antibodies were measured by surface plasmon resonance (SPR) using a MASS-1 SPR instrument (Sierra Sensors). […] Rabbit monoclonal antibodies were captured by the immobilized anti-rabbit IgG antibody. Two-fold serial dilutions of human heterodimeric single-chain CD3εγ extracellular domain (produced in-house) ranging from 90 to 2.81 nM were injected into the flow cells for 3 min and dissociation of the protein from the IgG captured on the sensor chip was allowed to proceed for 5 min. After each injection cycle, surfaces were regenerated with two injections of 10 mM glycine-HCl. The apparent dissociation (kd) and association (ka) rate constants and the apparent dissociation equilibrium constant (KD) were calculated with the MASS-1 analysis software (Analyzer, Sierra Sensors) using one-to-one Langmuir binding model.

For test [5], the target named is T3, human CD3ε expressed on the cell surface of T cells (Jurkat cells; human CD8+ T cells) (human, UniProt P07766 23-207).
T3 construct: whole, on cells; also called native CD3ε embedded in the TCR complex on Jurkat cells
Put plainly: cell-based ELISA on Jurkat cells, CD3ε-deficient Jurkat subtracted. The procedure: Jurkat cells (clone E6-1), a human T cell line, were seeded at 300,000 cells/well in round bottom 96-well plates in 100 μl phosphate-buffered saline (PBS) containing 10% FBS. Five-fold serial dilutions of anti-CD3 rabbit monoclonal antibodies ranging from 90 nM to 0.0058 nM were added to the plates in 100 μl PBS containing 10% FBS. […] This secondary antibody was linked to the enzyme horseradish peroxidase (HRP). HRP activity was measured by addition of TMB substrate (3,3′,5,5′-tetramethylbenzidine, KPL, Cat. No. 53-00-00), which in a colorimetric reaction is processed by the HRP. The color intensity of the processed substrate is directly proportional to the amount of anti-CD3 antibody bound to Jurkat cells. To quantify color intensity, light absorbance (optical density) at the respective wave length was measured using a microtiter plate reader (Infinity reader M200 Pro, Tecan).
To correct for unspecific binding of the antibodies to unknown components presented on the cell surface of Jurkat cells, a CD3ε deficient derivative of the Jurkat T cell line (J.RT3-T3.5) was used. Binding of the monoclonal antibodies to this cell line was measured as described above for the Jurkat cells. For quantification of specific binding to Jurkat cells, the optical density for binding to the negative control was subtracted from the optical density for binding to Jurkat cells. Data were analyzed using a four-parameter logistic curve fit using the Softmax Data Analysis Software (Molecular Devices), and the molar concentration of anti-CD3 antibody required to reach 50% binding (EC₅₀, mid-OD of the standard curve) was derived from dose response curves.
For orientation: ELISA stands for enzyme-linked immunosorbent assay.

Test [6] has as its target T4, linear 15mer peptides derived from cynomolgus CD3ε residues 5-20 (Set 4) (cynomolgus).
T4 construct: also called peptides spanning residues 5-20
T4 peptide: EEMGSITQTPYQVSIS
Briefly: peptide array ELISA, Set 4. The protocol: (§1) The binding of the antibodies to each of the synthesized peptides was tested by ELISA. The peptide arrays were incubated with primary antibody solution (overnight at 4° C.). After washing, the peptide arrays were incubated with a 1/1000 dilution of an antibody peroxidase conjugate (SBA, cat.nr.2010-05) for one hour at 25° C. After washing, the peroxidase substrate 2,2′-azino-di-3-ethylbenzthiazoline sulfonate (ABTS) and 2 μl/ml of 3% H₂O₂ were added. After one hour, the color development was measured. The color development was quantified with a charge coupled device (CCD)—camera and an image processing system.

Test [7] has as its target T5, linear 15mer peptides derived from human CD3ε residues 5-20 (Set 3) (human).
T5 construct: also called peptides spanning residues 5-20
T5 peptide: EEMGGITQTPYKVSIS
Briefly: peptide array ELISA, Set 3. The procedure: as §1

The target in test [8] is T3, human CD3ε expressed on the cell …. Put plainly: cell-based or functional assay.
Test [9] deals with T6, linear 15mer peptide derived from cynomolgus CD3ε residues 2-16 (wild type of the substitution library, Set 2) (cynomolgus).
T6 construct: Probed as a saturation mutagenesis library on a peptide array
T6 peptide: DGNEEMGSITQTPYQ
Put plainly: 15mer peptide array ELISA.

In test [10] the target is T7, linear 15mer peptide derived from human CD3ε residues 2-16 (wild type of the substitution library, Set 1) (human).
T7 construct: Probed as a saturation mutagenesis library on a peptide array
T7 peptide: DGNEEMGGITQTPYK
Briefly: 15mer peptide array ELISA.

The target of test [11] is mouse CD3ε (mouse, UniProt P22646 22-108, limits assumed). Briefly: SPR.
Sequence of mouse CD3ε (P22646 22-108 limits assumed): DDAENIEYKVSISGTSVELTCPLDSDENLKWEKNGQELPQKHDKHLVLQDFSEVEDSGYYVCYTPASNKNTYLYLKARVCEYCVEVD

T1 sequence (Q95LI7 other isoform, or with tags, fused parts or gaps): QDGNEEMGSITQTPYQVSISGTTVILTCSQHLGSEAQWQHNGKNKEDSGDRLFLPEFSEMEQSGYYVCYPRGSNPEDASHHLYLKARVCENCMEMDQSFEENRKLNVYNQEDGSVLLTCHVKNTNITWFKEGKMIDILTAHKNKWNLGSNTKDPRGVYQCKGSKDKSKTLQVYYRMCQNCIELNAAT

In the case of OKT3 (antibody), in test [1], the Fold increase in CD69 expression [MFI normalized to neg. ctrl.], 1.25 µg/ml anti-CD3 IgG amounted to 1.8 fold; the Fold increase in CD69 expression [MFI normalized to neg. ctrl.], 5 µg/ml anti-CD3 IgG stood at 2.5 fold; the Fold increase in CD69 expression [MFI normalized to neg. ctrl.], 20 µg/ml anti-CD3 IgG was 3.1 fold.
The matching figures for TR66 (antibody): 1.6 fold, 2.2 fold and 3 fold.

B1: clone-01 (antibody, V domains shown)
VH: QSVEESGGRLVTPGTPLTLTCTVSGFPLSSYAMIWVRQAPGKGLEWIGMILRAGNIYYASWAKGRFTISKTSTTVDLKITSPTTEDTATYFCARRQYNTDGYPIGIGDLWGPGTLVTVSS
VL: AQVLTQTASSVSAAVGGTVTISCQSSESVYNNNRLSWFQQKPGQPPKQLIYSASSLASGVPSRFKGSGSGTQFTLTISDLECDDAATYYCQGEFSCSSADCFTFGGGTEVVVKG
notes: Recombinant rabbit IgG; also called purified monoclonal rabbit anti-CD3ε antibody clone-01
What is called Kd is the free concentration of one partner at which half of the binding sites on the other are occupied at equilibrium, for simple one-to-one binding. For orientation: koff means a measure of how fast the partners let go of each other. A word on the kon: it is the second-order rate constant of association. What is called EC50 is the concentration needed to bring the measured effect to its halfway point. For B1, in [2], the Kd was found to be 10.2 nM, the koff is 0.00392 s⁻¹ and the kon came out at 386000 M⁻¹ s⁻¹. Also, in [3], the “KD (human)/KD (cyno)” value was determined as 3. In [4], this molecule came in with a Kd of 2.97 nM, a koff of 0.00159 s⁻¹ and a kon of 536000 M⁻¹ s⁻¹. The EC50 in [5] is 0.58 nM.

B2: clone-11 (antibody, V domains shown)
VH: QSLEESGGRLVTPGTPLTLTCTVSGFPLSSYAMGWFRQAPGKGLEWIGMILRADNTYYASWVNGRFTISKTSTTVDLKITSPTTEDTATYFCARRHYNTYGYPVAIGDLWGPGTLVTVSS
VL: AQVLTQTPSSVSAAVGGTVTINCQSSQSVYNNNRLSWFQQKPGQPPKLLIYTASSLASGVPSRFKGSGSGTEFTLTISDLECADAATYYCQGEFSCSSADCFTFGGGTEVVVKG
notes: Recombinant rabbit IgG
B2: in test [2], the Kd is 10 nM, the koff was found to be 0.00365 s⁻¹ and the kon amounted to 363000 M⁻¹ s⁻¹. Further, the “KD (human)/KD (cyno)” value in test [3] was 3. For the same molecule, in [4], the affinity, expressed as Kd, was 3.13 nM; the koff came to 0.00133 s⁻¹; the kon came out at 425000 M⁻¹ s⁻¹. Besides, in [5], the midpoint of the response, the EC50, lay at 0.28 nM.

B3: clone-04 (antibody, V domains shown)
VH: QSLEESGGRLVKPDETLTLTCTVSGFPLSSYAMGWFRQAPGKGLEWIGMILRSDNTYYASWAKGRFTISKTSTTVDLKITSPTTEDTATYFCARRHYNASGNPIAIGDLWGPGTLVTVSS
VL: AQVLTQTPSSVSAAVGGTVTINCQSSQSVYNNNRLSWFQQKPGQPPKLLIYTTSSLASGVPSRFKGSGSGTEFTLTISDLECADAATYYCQGEFSCSRADCFNFGGGTEVVVKG
notes: Recombinant rabbit IgG; also called Clone 4
As to B3, the Kd amounted to 4.12 nM in test [2] and 0.113 nM in test [4]. Also, the koff amounted to 0.00266 s⁻¹ in [2] and 9.88e-05 s⁻¹ in test [4]. In addition, the results for the kon in [2] and in test [4] were 646000 M⁻¹ s⁻¹ and 873000 M⁻¹ s⁻¹, respectively. Besides, in test [3], the “KD (human)/KD (cyno)” value turned out to be 36. For the same molecule, the binding result in [6] is “no binding”; in test [7] it was “no binding”; in test [9], “binds”; in [10], “binds”. Moreover, the “Fold increase in CD69 expression [MFI normalized to neg. ctrl.], 1.25 µg/ml anti-CD3 IgG” value in [8] was found to be 2.6 fold. Besides, the “Fold increase in CD69 expression [MFI normalized to neg. ctrl.], 5 µg/ml anti-CD3 IgG” value in test [8] came out at 3.5 fold. The “Fold increase in CD69 expression [MFI normalized to neg. ctrl.], 20 µg/ml anti-CD3 IgG” value in test [8] turned out to be 7.8 fold. Besides, the concentration giving a half-maximal response (EC50) in test [5] was determined as 1.87 nM.

B4: clone-10 (antibody, V domains shown)
VH: QSLEESGGRLVTPGTPLTLTCTVSGFPLSSFAMLWVRQAPGKGLEWIGMIMRAHNMYYASWAKGRFTISKTSTTVDLEITSPTTEDTATYFCARRHYNTYGYPIAIGDLWGPGTLVTVSS
VL: AQVLTQTPSSVSAAVGGTATISCQSNENIYSNNRLSWFQQKAGQPPNQLIYSASSLASGVPSRFKGSGSGTQFTLTISDLECDDAATYYCQGEFSCSSADCFTFGGGTEVVVKG
notes: Recombinant rabbit IgG
Turning to B4, in test [2], binding was put at a Kd of 10.9 nM, the koff came to 0.00349 s⁻¹ and the kon is 321000 M⁻¹ s⁻¹. The “KD (human)/KD (cyno)” value in test [3] was 7. In test [4], this molecule gave a Kd of 1.66 nM, an off-rate constant (koff) of 0.00126 s⁻¹ and a kon of 757000 M⁻¹ s⁻¹. In test [8], the “Fold increase in CD69 expression [MFI normalized to neg. ctrl.], 1.25 µg/ml anti-CD3 IgG” value came to 2.6 fold; the “Fold increase in CD69 expression [MFI normalized to neg. ctrl.], 5 µg/ml anti-CD3 IgG” value is 4.2 fold; the “Fold increase in CD69 expression [MFI normalized to neg. ctrl.], 20 µg/ml anti-CD3 IgG” value stood at 6.2 fold. In test [5], this molecule had an EC50 of 0.35 nM.

B5: clone-09 (antibody, V domains shown)
VH: QSLEESGGRLVTPGTPLTLTCTVSGFPLNRYAMLWVRQAPGKGLEWIGLITRADKKYYASWAKGRFTISKTSTTVDLEITGPTTEDTATYFCARRHYNTDGYPVAIGDLWGPGTLVTVSS
VL: AQVLTQTPSSVSAAVGGTVTISCQSNENIYSNNRLSWFQQKPGQPPNQLIYSASSLASGVPSRFKGSGSGTQFTLTISDLECDDAATYYCQGEFNCNSADCFTFGGGTEVVVKG
notes: Recombinant rabbit IgG
In [2], B5 gave an equilibrium dissociation constant (Kd) of 11.6 nM, a koff of 0.00269 s⁻¹ and a kon of 232000 M⁻¹ s⁻¹. In addition, in [3], the “KD (human)/KD (cyno)” value is 10. Besides, in test [4], binding was put at a Kd of 1.14 nM, the koff was determined as 0.000688 s⁻¹ and the kon worked out at 601000 M⁻¹ s⁻¹. In addition, the EC50 in test [5] was found to be 0.82 nM.

B6: clone-12 (antibody, V domains shown)
VH: QSLEESGGRLVTPGTPLTLTCTVSGFPLSRYAMLWVRQAPGKGLEWIGLITRADNKYYASWAKGRFTISKTSTTVDLEITSPTTEDTATYFCARRHYNTDGYPIAIGDLWGPGTLVTVSS
VL: AQVLTQTPSSVSATVGGTVTISCQSNENIYSNNRLSWFQQKPGQPPKLLIYSASSLASGVPSRFKGSGSGTQFTLTISDLECDDAATYYCQGEFNCNSADCFTFGGGTEVVVKG
notes: Recombinant rabbit IgG
For the molecule B6, in test [2], binding was characterised by a dissociation constant (Kd) of 22.2 nM, the koff was 0.00314 s⁻¹ and the kon turned out to be 142000 M⁻¹ s⁻¹. In [3], the “KD (human)/KD (cyno)” value is 20. Further, in test [4], the Kd was 1.11 nM, the koff was 0.000798 s⁻¹ and the kon is 721000 M⁻¹ s⁻¹. The molecule also gave a concentration for a half-maximal effect (EC50) in test [5] of 0.59 nM.

B7: PRO400 (Fab, V domains shown)
VH: EVQLVESGGGLVQPGKSLKLSCEASGFTFSGYGMHWVRQAPGRGLESVAYITSSSINIKYADAVKGRFTVSRDNAKNLLFLQMNILKSEDTAMYYCARFDWDKNYWGQGTMVTVSS
VL: DIQMTQSPSSLPASLGDRVTINCQASQDISNYLNWYQQKPGKAPKLLIYYTNKLADGVPSRFSGSGSGRDSSFTISSLESEDIGSYYCQQYYNYPWTFGPGTKLEIKR
notes: Chimeric Fab: hamster 2C11 variable domains with human CL and CH1; also called anti-mCD3 Fab; 2C11 Fab
On to B7, for which, in test [11], the Kd came to 11.4 nM, the koff is 0.00266 s⁻¹ and the kon turned out to be 233000 M⁻¹ s⁻¹.
